± gives the uncertainty stated by the source.
Assay: amyloid nucleation score (Sup35N fusion, yeast selection) (log enrichment); library NNK1; higher = more nucleation; inactive = no reads after selection
Procedure, shortened: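 The nucleation score is a DiMSum log enrichment of output over input reads, centred on the mode score of non-aggregating sequences. Sequences under 100 input reads were excluded, and reads came from Illumina sequencing of plasmid inserts. Psi-negative yeast expressing Sup35N fused to peptides of 20 random codons were induced with 100 μM copper sulfate for 24 hours and grown 7 days at 30°C on medium lacking adenine and uracil. Random libraries had three technical output replicates.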

| Substance | amyloid nucleation score |
| --- | --- |
| VRNWCVGSTVARRYHWMTCP | 0.413 ± 0.58 |
| VRPMSDNSRVCVKSDNRSTG | -1.14 ± 0.93 |
| VRSGRSDATAAKYFLHLTWY | -0.465 ± 0.89 |
| VRSLARNG | 0.947 ± 0.7 |
| VRSPNIEYDFCRVLPTLTGE | 0.505 ± 1.4 |
| VRVQTRHLGDGLPHGQDKCY | -0.403 ± 0.52 |
| VRVVSTSRILFHGFFRNNKG | 0.567 ± 0.33 |
| VRYVNRLKAHALDPKLKTL | -0.18 ± 0.62 |
| VSALAVRARWAINTLARDRR | 0.9 ± 0.66 |
| VSCCNSQTSQLMDFGNKVSP | 0.349 ± 0.25 |
| VSCQHTVFKVICSYLPHLCK | 0.666 ± 0.59 |
| VSFRTLYGRI | -0.187 ± 0.27 |
| VSHIAPRWPLSRTIRETQRM | 0.479 ± 1.2 |
| VSHSGCKSF | -0.434 ± 0.47 |
| VSIGILLFILPSRTGCVCLM | 0.087 ± 0.66 |
| VSKGLEHRPHVWG | 5.35 ± 0.064 |
| VSLLKGRVAMSRG | 1.1 ± 0.38 |
| VSLVMWVYCGDDWLSFAIRA | -0.211 ± 0.38 |
| VSMHNLMQRFSGFMYQCFAG | 1.55 ± 0.2 |
| VSNFIGVFVAVSWRYDDLCF | 0.324 ± 1.2 |
| VSNRTVNDGYGSSGAALCLR | 0.099 ± 0.44 |
| VSRLRSDWNL | 1.43 ± 0.3 |
| VSVSNISSVLTLSGKMLIST | -0.031 ± 0.39 |
| VSWECSIVNAYMQPATCDII | 4.88 ± 0.1 |
| VSWHGSVLHRACMKWVCMCG | 0.51 ± 0.79 |

| Substance | amyloid nucleation score |
| --- | --- |
| VSYLEGVRWLCIIYTGNRSW | inactive |
| VTCRLPETMPGGTWLNMIIR | inactive |
| VTFLIMGWLRDRRV | -0.563 ± 0.39 |
| VTFWDPVVLTTPPKLCI | -0.946 ± 0.49 |
| VTHNSTAHE | 1.09 ± 0.75 |
| VTNTSLFSIAKSLGHHHEGR | 0.272 ± 0.4 |
| VTPGRLQRLVM | -1.39 ± 0.58 |
| VTRFRYECRSGHRKHPGGMD | inactive |
| VTVEIAWKMA | 0.054 ± 0.67 |
| VTYDKAQG | 0.051 ± 0.68 |
| VVAGNSAKEIYKFTGADTPY | -0.751 ± 0.57 |
| VVCNCGHGIKNIC | -1.08 ± 1.6 |
| VVDEKREVRSLANVNTASSL | 0.1 ± 0.28 |
| VVDLVHVCSFFTFYVCATLL | 1.66 ± 0.6 |
| VVDSTFWEVIHRRWASAMLD | -0.657 ± 0.68 |
| VVESGVFWDSSYNFKGDTVW | 0.532 ± 0.92 |
| VVGRGKLQCVLFRHDTAYRV | -0.058 ± 0.28 |
| VVISMTTMKVFMLVYTMDFM | 0.046 ± 0.21 |
| VVKLRHYAEKICGSETELG | 0.003 ± 0.51 |
| VVLQTTPSAYSIMVHLWYYS | 0.472 ± 0.46 |
| VVLSIYTNITSCCDLLTSRR | 6.787 ± 0.047 |
| VVNSSS | 0.537 ± 0.85 |
| VVRWSFDNAYSSSLDNLIVI | -0.209 ± 0.34 |
| VVSLNE | 0.915 ± 0.9 |
| VVSTPHSN | -0.099 ± 0.85 |

| Substance | amyloid nucleation score |
| --- | --- |
| VVTRYL | 0.403 ± 0.36 |
| VVTVLGVGLDSSSSGWWFVA | 0.168 ± 0.46 |
| VVVVKLQVQCDGESMSACLG | -0.495 ± 1.5 |
| VVWYLMVFWPCDSLSPMSRS | 0.559 ± 0.4 |
| VWCRFERDTISKLCASWGRR | -0.237 ± 1.9 |
| VWENQLVWMVWWWEGTGS | 0.527 ± 0.49 |
| VWEQLIAE | -0.26 ± 0.84 |
| VWIDLSMCIYMLEPLNSLFR | 1.95 ± 0.19 |
| VWKDS | -0.285 ± 0.65 |
| VWMRVKIGGVWC | 1.58 ± 0.47 |
| VWNNKECANFDNIWATLLIV | inactive |
| VWVKSHLY | -0.537 ± 0.25 |
| VYAMGIHWRFCAKKRIMSG | -0.802 ± 1.7 |
| VYAQMALLR | -0.164 ± 0.62 |
| VYCCTYVQINVGVERSTEIR | 7.044 ± 0.05 |
| VYCVCYLWLKVVHKSLDTLS | 2.23 ± 0.079 |
| VYIVCYFLHTGSFGWTCCVE | inactive |
| VYKTRVYVDCYEILDGSKEM | 0.491 ± 0.45 |
| VYRLEVIARK | 1.69 ± 0.33 |
| VYSEVSFDF | inactive |
| VYSWNNYGDRKILMLFLTGY | 4.63 ± 0.065 |
| VYTSTVMFEHMDRNMLMVKM | 0.166 ± 0.21 |
| VYVDSCCHMF | 7.508 ± 0.069 |
| VYVIIWSIILGRTVAGWMYY | inactive |
| VYWRFPRSNGEWYNMLVLKD | -0.576 ± 0.53 |

| Substance | amyloid nucleation score |
| --- | --- |
| VYWRREVSI | 0.312 ± 1.2 |
| WACMWAQSPYGAFFIVSMED | -0.223 ± 0.38 |
| WCGKACFVYKSHGQGG | 0.235 ± 0.53 |
| WCRCTINFRHEDLNPFFNPK | 2.01 ± 0.16 |
| WCRIVG | 0.227 ± 0.57 |
| WCWNAAQLSMVYSDMNFVAV | 0.675 ± 1 |
| WDCYCPWLTLKYEAGLRTSG | -1.17 ± 1.9 |
| WDWVYGKFLR | 0.736 ± 0.26 |
| WDYSRLLFAYNKIVTERNNG | -0.356 ± 0.29 |
| WEFRRWGLRLHLSFLASLGA | -0.015 ± 0.25 |
| WEGGGMGNYVQRHACARHKV | 0.125 ± 0.3 |
| WEWIQDVWVPHISDPLSWAI | -1.2 ± 0.83 |
| WFSINIGKMGARVLSVGQDG | inactive |
| WFVTFVWVSSVRTILP | 0.361 ± 1 |
| WFWIMIFRHCNVIL | 0.404 ± 0.5 |
| WFYTVARPNVSSSLESRTEP | 0.137 ± 0.22 |
| WGIFSMYHWRYAVRDRSMHS | inactive |
| WGPRSVNGTLRI | -0.488 ± 0.32 |
| WGQFYVLTSVLHYINQWH | -2.58 ± 2.7 |
| WGQTWDVFY | 0.916 ± 0.46 |
| WGTLVIGCFVHTVNLHNRKR | 6.809 ± 0.048 |
| WHFFVKKRVRCDSHSSMQWN | -0.677 ± 0.69 |
| WHPYYIQVKGILALLSSVHH | 3.18 ± 0.073 |
| WHSISYF | inactive |
| WIATC | 0.214 ± 0.29 |

| Substance | amyloid nucleation score |
| --- | --- |
| WICMAP | 3.42 ± 0.089 |
| WIGGVKG | -0.427 ± 0.72 |
| WIGNRVSSMFDGTGS | 0.538 ± 0.55 |
| WIHACK | 0.778 ± 0.45 |
| WIKLRLGFKRSFIPECGFLG | -0.208 ± 0.54 |
| WIMKGY | -0.123 ± 1.1 |
| WINYRRDPTAHSNSYFRVGI | 0.059 ± 0.58 |
| WIVSFMAIRH | 1.51 ± 0.25 |
| WIYGWACWYCNLNDSTRVGK | 5.798 ± 0.047 |
| WKASFIRFWFVAIMFMYNLC | -0.1 ± 0.42 |
| WKRSEINDVFVM | inactive |
| WKYIMHLSRFYVFPCSTERG | 0.112 ± 0.87 |
| WLAFWCDLGVSSSFFWAFCG | -0.066 ± 0.37 |
| WLLTNPPLIVFTVRRNSRFS | -1.09 ± 1.9 |
| WLQTTYLGLFMVFTGFEGY | -0.586 ± 0.55 |
| WMEVHWGGNVSLDSSYMELF | -0.044 ± 1.1 |
| WNASMQSTGWFDILIYMCPV | 3.19 ± 0.11 |
| WNDSYRINSTGCHDCLYRLF | -0.37 ± 0.3 |
| WNHFERMEKPA | -0.639 ± 1.2 |
| WNYTLGRCRTLGYAVAVLDI | -0.389 ± 1 |
| WPELIFNGVPMSSCVLPGLF | 1.12 ± 0.6 |
| WPNNRVQFCSCGSRFSCLGS | 0.933 ± 0.85 |
| WPPMQGLSLSSLSSINHPHT | 0.76 ± 1.1 |
| WPRNFYFMFRCLGMAAREMC | 0.285 ± 0.63 |
| WQHSPTYGYLYIHC | 0.633 ± 0.18 |

| Substance | amyloid nucleation score |
| --- | --- |
| WRAYFACYNILESAFLLVQL | inactive |
| WRLSLYPQPLGLWAEATLDT | -0.209 ± 0.53 |
| WRSNI | -0.151 ± 0.49 |
| WRVSMFGLSESLDRLPCKDL | -0.371 ± 0.45 |
| WSFLANFNWMN | 0.157 ± 1.4 |
| WSFQPGRVVFHMFERGDHCC | 0.187 ± 0.4 |
| WSGIVFRIEGVAYVVHVNDA | 1.17 ± 0.18 |
| WSLDSNKSWSCFKCLCFYCG | 6.223 ± 0.054 |
| WSRTDRDDLLVYMKLPRHVY | 0.472 ± 0.37 |
| WTCMKSFVMWQSLDFVHFIA | 0.85 ± 0.98 |
| WTRKS | -0.067 ± 0.35 |
| WTRSFRAFGSSVYWEGRGNH | 1.22 ± 0.26 |
| WVHWWFRHVNMACQNGGFIF | -0.565 ± 0.68 |
| WVILVNDGVNVCCFSVRVWA | -0.903 ± 2.4 |
| WVLWYSLLLTDGGDLIESTW | -0.156 ± 0.23 |
| WVNGMYQGRNEYDEKI | -0.455 ± 0.56 |
| WVPGITVKMRYGPESIVDWR | 0.565 ± 1.1 |
| WVSFCNFDGKKFGAVRAHYY | -2 ± 0.97 |
| WVSKNRSSFMGCSSFTATWT | 0.884 ± 0.69 |
| WVSSDITGRG | 1.87 ± 0.65 |
| WVWFCNEF | -0.307 ± 0.57 |
| WVWLHDKASLNLL | 0.007 ± 0.72 |
| WWRIIGTEAQNMGG | 0.631 ± 0.55 |
| WYENMFN | 3.15 ± 0.14 |
| WYEVRYMLTQSYRVHMLFLI | -0.322 ± 1.7 |

| Substance | amyloid nucleation score |
| --- | --- |
| WYKSYVITFITDTLVVDRET | 2.41 ± 0.16 |
| WYNGNKSHGRRVPGVQPRAL | -0.046 ± 0.46 |
| WYRGMHLVARRFMTYLARKY | 1.32 ± 0.65 |
| WYRQSAFNVLTDSLIILLVC | 4.99 ± 0.07 |
| WYVFLYFGCEKAMALSTNMT | inactive |
| WYVMRLKLVCI | 0.156 ± 0.87 |
| WYYITS | 0.295 ± 0.67 |
| YAERLIRKWS | 0.06 ± 0.28 |
| YAIRHLKIGSGWWSLWMSSM | -0.522 ± 0.34 |
| YAISGAGYMLF | 0.027 ± 1.7 |
| YAKHCAEGYGFLGWSLWAVR | 0.106 ± 0.34 |
| YASTPWYYMCWFIWAYCFSS | inactive |
| YCGGRKG | 0.144 ± 0.34 |
| YCLFNLESG | 0.315 ± 0.53 |
| YCMRFVQ | 1.52 ± 0.49 |
| YCSTSYRSSHNRSGVWKGTL | 1.62 ± 0.55 |
| YCTGSRVVPDGSLVYATCNM | 0.895 ± 0.65 |
| YCTVVKFLHATFQFSNPLGM | 1.58 ± 0.48 |
| YDFVIFLGHDACEIYCFLRS | 0.935 ± 0.56 |
| YDIQVISPPSKM | 0.202 ± 0.31 |
| YECGFLLSLVRATKLLNSAC | 0.146 ± 0.28 |
| YEFMWRVNTLWRENLFYSGR | 0.156 ± 0.59 |
